{"source": "patent US20220281966A1", "about": "(Amgen, published 2022)", "key": {"[1]": {"target": "T1, IL-13 (human IL-13, preparation not specified) (human, UniProt P35225 35-146, limits assumed)", "T1 sequence (P35225 35-146 limits assumed)": "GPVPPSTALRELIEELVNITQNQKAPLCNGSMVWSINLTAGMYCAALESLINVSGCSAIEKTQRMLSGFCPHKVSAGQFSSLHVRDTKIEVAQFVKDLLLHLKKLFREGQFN", "assay": "cell-based or functional assay"}, "native human IL-13 [2]": {"target": "T2, native human IL-13 (human, UniProt P35225 25-146)", "T2 construct": "mature; Secreted by stimulated PBMCs; also called hIL-13 (KinExA)", "assay": "KinExA, Kinetic Direct method"}, "native human IL-13 [3]": {"target": "T2, native human IL-13", "assay": "KinExA, Kinetic inject method"}, "native human IL-13 [4]": {"target": "T2, native human IL-13", "assay": "KinExA equilibrium in solution"}, "[5]": {"target": "T3, native macaque monkey IL-13 (macaque monkey, UniProt Q0PW92 19-132)", "T3 construct": "also called native macaque IL-13", "T3 sequence (Q0PW92 entry or part of it limits assumed)": "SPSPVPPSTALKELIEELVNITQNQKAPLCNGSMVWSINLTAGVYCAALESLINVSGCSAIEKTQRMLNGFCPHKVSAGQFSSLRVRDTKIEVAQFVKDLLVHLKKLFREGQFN", "assay": "KinExA equilibrium in solution"}, "mouse IL-13": {"target": "T4, mouse IL-13 (mouse, UniProt P20109 21-131, limits assumed)", "T4 sequence (looked up)": "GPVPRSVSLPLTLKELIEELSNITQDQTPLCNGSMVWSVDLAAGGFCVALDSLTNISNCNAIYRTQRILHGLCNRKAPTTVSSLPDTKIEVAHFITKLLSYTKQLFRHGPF", "assay": "ELISA, epitope mapping with chimeras"}, "native human IL-13 [6]": {"target": "T2, native human IL-13", "assay": "KinExA, Kinetic Direct method (KD repeated from Table 10)"}, "native human IL-13 [7]": {"target": "T2, native human IL-13", "assay": "KinExA, Kinetic Direct method; calculated from kon and KD"}, "native human IL-13 [8]": {"target": "T2, native human IL-13", "assay": "KinExA, Kinetic inject method (KD repeated from Table 10)"}, "native human IL-13 [9]": {"target": "T2, native human IL-13", "assay": "KinExA, Kinetic inject method; calculated from kon and KD"}, "[10]": {"target": "T5, Recombinant Human IL-13 (R&D 213-IL-005) (human, UniProt P35225 35-146)", "T5 sequence (P35225 35-146 limits assumed)": "as the sequence (P35225 35-146 limits assumed) above", "assay": "Biacore 2000, mAb captured on goat anti-human surface, IL-13 (R&D) injected, 1:1 fit"}, "[11]": {"target": "T6, Human IL-13-rabbit Fc fusion protein (human)", "T6 construct": "also called IL-13-RbFc; IL-13RbFc", "T6 sequence (chain, as listed by the source limits assumed)": "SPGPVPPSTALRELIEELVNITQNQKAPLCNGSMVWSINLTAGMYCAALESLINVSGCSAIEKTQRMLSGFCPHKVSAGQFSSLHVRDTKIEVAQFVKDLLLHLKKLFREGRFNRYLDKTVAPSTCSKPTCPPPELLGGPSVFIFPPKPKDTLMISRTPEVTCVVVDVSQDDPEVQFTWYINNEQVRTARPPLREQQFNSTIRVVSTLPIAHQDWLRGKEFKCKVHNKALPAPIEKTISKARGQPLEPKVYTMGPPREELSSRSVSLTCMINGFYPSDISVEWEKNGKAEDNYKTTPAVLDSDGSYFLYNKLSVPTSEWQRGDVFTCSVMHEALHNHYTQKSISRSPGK", "assay": "ELISA on plates coated with IL-13RbFc, antibody without soluble competitor, detection rabbit anti Hu IgG Fc HRP"}, "[12]": {"target": "T1, IL-13 (human IL-13, preparation not …)", "assay": "cell-based or functional assay", "remark": "listed apart in the source"}, "[13]": {"target": "T7, Human IL-13-Mouse IL-13 Helix D chimera (human with mouse Helix D)", "T7 construct": "also called Mo HelixD", "T7 chain": "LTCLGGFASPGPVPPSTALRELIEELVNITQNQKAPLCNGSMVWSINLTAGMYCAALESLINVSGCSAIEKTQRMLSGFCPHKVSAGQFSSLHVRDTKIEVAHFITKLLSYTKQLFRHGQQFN", "assay": "ELISA on secreted chimeric IL-13"}, "[14]": {"target": "T5, Recombinant Human IL-13 (R&D 213-IL-005)", "assay": "Biacore 2000, mAb captured on goat anti-human surface, IL-13 (R&D) injected, 1:1 fit; first run"}, "[15]": {"target": "T5, Recombinant Human IL-13 (R&D 213-IL-005)", "assay": "Biacore 2000, mAb captured on goat anti-human surface, IL-13 (R&D) injected, 1:1 fit; second run"}}, "data": [{"binder": "antibody 11.18.3 (antibody, V domains shown) VH: QVQLVESGGGVVQPGRSLRLSCVASGFTFSSYDMHWVRQAPGKGLEWVAVIWYDGSNKYYADSVQGRFTISRDNSKNTLYLQMNSLRAEDTAVYYCTSEDSSGWYDGWFDPWGQGTLVTVSS VL: DIQMTQSPSSLSASVGDRVTITCRASQGISNYLAWYQQKPGKVPKVLIYAASTLQSGVPSRFSGSGSGTDFTLTISSLQPEDVATYYCQKYNSAPFTFGPGTKVDIK", "values": [{"measurement": "IC50, Eotaxin-1 assay, Average", "setting": "[1]", "value": 245, "unit": "pM"}, {"measurement": "IC50, Eotaxin-1 assay, n = 1", "setting": "[1]", "value": 213, "unit": "pM"}, {"measurement": "IC50, Eotaxin-1 assay, n = 2", "setting": "[1]", "value": 304, "unit": "pM"}, {"measurement": "IC50, Eotaxin-1 assay, n = 3", "setting": "[1]", "value": 217, "unit": "pM"}]}, {"binder": "antibody 623 (antibody, V domains shown) VH: EVQLVESGGGLVKPGGSLRLSCAASGFTFSNAWMSWVRQAPGKGLEWVGRIRSEIDGGTTNYAAPVKGRFTISRDDSKNTLYLQMNSLKTEDTAVYYCATDQVGAYYGDYYGMDVWGQGTLVTVSS VL: SYELTQPPSVSVSPGQTARITCSGDALPEKYAYWYQQKSGQAPVLVIYEDSKRPSGIPERFSGSSSGTMATLTISGAQVEDEADYYCHSTDSSGNHGVFGGGTKLTVL", "values": [{"measurement": "IC50, Eotaxin-1 assay, Average", "setting": "[1]", "value": 36, "unit": "pM"}, {"measurement": "IC50, Eotaxin-1 assay, n = 1", "setting": "[1]", "value": 31, "unit": "pM"}, {"measurement": "IC50, Eotaxin-1 assay, n = 2", "setting": "[1]", "value": 40, "unit": "pM"}, {"measurement": "IC50, Eotaxin-1 assay, n = 3", "setting": "[1]", "value": 35, "unit": "pM"}, {"measurement": "kon", "setting": "native human IL-13 [2]", "value": "1.1e+07", "unit": "M⁻¹ s⁻¹"}, {"measurement": "kon", "setting": "native human IL-13 [3]", "value": "1.5e+07", "unit": "M⁻¹ s⁻¹"}, {"measurement": "Kd", "setting": "native human IL-13 [4]", "value": 0.024, "unit": "nM"}, {"measurement": "Kd", "setting": "[5]", "value": 0.037, "unit": "nM"}, {"measurement": "binding result", "setting": "mouse IL-13", "value": "no binding"}, {"measurement": "Kd", "setting": "native human IL-13 [6]", "value": 0.024, "unit": "nM"}, {"measurement": "koff", "setting": "native human IL-13 [7]", "value": 0.00027, "unit": "s⁻¹"}, {"measurement": "Kd", "setting": "native human IL-13 [8]", "value": 0.024, "unit": "nM"}, {"measurement": "koff", "setting": "native human IL-13 [9]", "value": 0.00036, "unit": "s⁻¹"}, {"measurement": "Kd", "setting": "[10]", "value": 0.052, "unit": "nM"}, {"measurement": "koff", "setting": "[10]", "value": 0.00025, "unit": "s⁻¹"}, {"measurement": "kon", "setting": "[10]", "value": "4.9e+06", "unit": "M⁻¹ s⁻¹"}, {"measurement": "binding result", "setting": "[11]", "value": "binds"}]}, {"binder": "antibody 643 (antibody, V domains shown, also called Ab 643; mAb 643) VH: EVQLVESGGGLVKPGGSLRLSCAASGFTFSNAWMSWVRQAPGKGLEWVGRIRSEIDGGTTNYAAPVKGRFTISRDDSKNTLYLQMNSLRTEDTAVYYCATDQVGAYYGDYYGMDVWGQGTLVTVSS VL: SYELTQPPSVSVSPGQTARITCSGDALPEKYAYWYQQKSGQAPVLVIYEDSKRPSGIPERFSGSSSGTMATLTISGAQVEDEADYYCHSTDSSGNHGVFGGGTKLTVL", "values": [{"measurement": "IC50, Eotaxin-1 assay, Average", "setting": "[1]", "value": 35, "unit": "pM"}, {"measurement": "IC50, Eotaxin-1 assay, n = 1", "setting": "[1]", "value": 44, "unit": "pM"}, {"measurement": "IC50, Eotaxin-1 assay, n = 2", "setting": "[1]", "value": 28, "unit": "pM"}, {"measurement": "IC50, Eotaxin-1 assay, n = 3", "setting": "[1]", "value": 33, "unit": "pM"}, {"measurement": "IC50 (read off the curve)", "setting": "[12]", "value": "~0.03", "unit": "nM"}, {"measurement": "Kd", "setting": "native human IL-13 [4]", "value": 0.013, "unit": "nM"}, {"measurement": "binding result", "setting": "mouse IL-13", "value": "no binding"}, {"measurement": "Kd", "setting": "[10]", "value": 0.066, "unit": "nM"}, {"measurement": "koff", "setting": "[10]", "value": 0.00029, "unit": "s⁻¹"}, {"measurement": "kon", "setting": "[10]", "value": "4.4e+06", "unit": "M⁻¹ s⁻¹"}]}, {"binder": "antibody 602 (antibody, V domains shown, also called mAb 602) VH: EVQLVESGGGLVKPGGSLRLSCAASGFTFSNAWMSWVRQAPGKGLEWVGRIRSKIDGGTINYAAPVKGRFTISRDDSKNTLYLQMNSLKTEDTAVYYCATDQVGAYYGDYYGMDVWGQGTLVTVSS VL: SYELTQPPSVSVSPGQTARITCSGDALPEKYAYWYQQKSGQAPVLVIYEDTKRPSGIPERFSGSSSGTMATLTISGAQVEDEADYYCYSTDSSGNHGVFGGGTKLTVL", "values": [{"measurement": "IC50, Eotaxin-1 assay, Average", "setting": "[1]", "value": 66, "unit": "pM"}, {"measurement": "IC50, Eotaxin-1 assay, n = 1", "setting": "[1]", "value": 80, "unit": "pM"}, {"measurement": "IC50, Eotaxin-1 assay, n = 2", "setting": "[1]", "value": 53, "unit": "pM"}, {"measurement": "binding result", "setting": "mouse IL-13", "value": "no binding"}, {"measurement": "Kd", "setting": "[10]", "value": 0.172, "unit": "nM"}, {"measurement": "koff", "setting": "[10]", "value": 0.00051, "unit": "s⁻¹"}, {"measurement": "kon", "setting": "[10]", "value": "3e+06", "unit": "M⁻¹ s⁻¹"}]}, {"binder": "antibody 353 (antibody, V domains shown) VH: QVQLQESGPGLVKPSETLSLTCTVSGGSISTYYWSWIRQPPGKGLEWIGYIYYSGSTNYNPSLKSRVTISVDTSKNQFSLKLSSVTAADTAVYYCARDGGHYWDDAFDIWGQGTMVTVSS VL: DIQMTQSPSSLSASVGDRVTITCRASQGIRNDLDWYQQKPGKAPKRLIYDASSLQSGVPSRFSGSGSGTEFTLTISSLQPEDFATYYCLQHDSYPFTFGPGTKVDIK", "values": [{"measurement": "IC50, Eotaxin-1 assay, Average", "setting": "[1]", "value": 101, "unit": "pM"}, {"measurement": "IC50, Eotaxin-1 assay, n = 1", "setting": "[1]", "value": 99, "unit": "pM"}, {"measurement": "IC50, Eotaxin-1 assay, n = 2", "setting": "[1]", "value": 123, "unit": "pM"}, {"measurement": "IC50, Eotaxin-1 assay, n = 3", "setting": "[1]", "value": 80, "unit": "pM"}]}, {"binder": "antibody 785 (antibody, V domains shown, lambda light chain) VH: not shown VL: SYVLTQPPSVSVAPGQTARITCGGNNIGNKIVHWYQQKPGQAPVLVVYDDSDRPSGIPERFSGSNSGNTATLTISRVEAGDEADYYCQVWDSSSDHVVFGGGTKLTVL", "values": [{"measurement": "IC50, Eotaxin-1 assay, Average", "setting": "[1]", "value": 176, "unit": "pM"}, {"measurement": "IC50, Eotaxin-1 assay, n = 1", "setting": "[1]", "value": 223, "unit": "pM"}, {"measurement": "IC50, Eotaxin-1 assay, n = 2", "setting": "[1]", "value": 144, "unit": "pM"}, {"measurement": "IC50, Eotaxin-1 assay, n = 3", "setting": "[1]", "value": 160, "unit": "pM"}, {"measurement": "binding result", "setting": "mouse IL-13", "value": "no binding"}, {"measurement": "binding result", "setting": "[13]", "value": "no binding"}]}, {"binder": "antibody 693 (antibody, V domains shown, also called sc693) VH: QVQLQESGPGLVKPSETLSLTCSVSGGSISSYYWSWIRQPAGKGLEWIGRIYMTGRTNYNSSLKSRVTMSIDTSKNQLSLKLSFMTAADTAVYYCARESGSSYSYDYWGQGTLVTVSS VL: SYVLTQPPSVSVAPGQTARITCGGNNIGSKGVHWYQQKPGQAPVLVVYDDSDRPSGIPERFSGSNSGNTATLTISRVEAGDEADYYCQVWVSSSDHHVVFGGGTKLTVV", "values": [{"measurement": "IC50, Eotaxin-1 assay, Average", "setting": "[1]", "value": 54, "unit": "pM"}, {"measurement": "IC50, Eotaxin-1 assay, n = 1", "setting": "[1]", "value": 38, "unit": "pM"}, {"measurement": "IC50, Eotaxin-1 assay, n = 2", "setting": "[1]", "value": 69, "unit": "pM"}, {"measurement": "IC50, Eotaxin-1 assay, n = 3", "setting": "[1]", "value": 53, "unit": "pM"}, {"measurement": "binding result", "setting": "mouse IL-13", "value": "no binding"}, {"measurement": "binding result", "setting": "[13]", "value": "no binding"}, {"measurement": "Kd", "setting": "[14]", "value": 0.189, "unit": "nM"}, {"measurement": "koff", "setting": "[14]", "value": 0.00038, "unit": "s⁻¹"}, {"measurement": "kon", "setting": "[14]", "value": "2e+06", "unit": "M⁻¹ s⁻¹"}, {"measurement": "Kd", "setting": "[15]", "value": 0.109, "unit": "nM"}, {"measurement": "koff", "setting": "[15]", "value": 0.00027, "unit": "s⁻¹"}, {"measurement": "kon", "setting": "[15]", "value": "2.5e+06", "unit": "M⁻¹ s⁻¹"}]}]}
